According to article PMC4852379:

Key:
[1] = molecular target: antibody 5J8, FA variant (Q295F/Y296A), EAS-stabilized (human); assay: BLI
[2] = molecular target: antibody 5J8, wild type (human IgG1 monoclonal antibody) (human); assay: BLI

Kd [1] | Kd [2] | Substance
1 µM | – | Fc gamma receptor IIIa (FcγRIIIa), recombinant (from UniProt P08637 17-208)
– | 0.27 µM | Fc gamma receptor IIa (FcγRIIa), recombinant (from UniProt P12318 34-217)
